From the supplement of paper PMC6757056
± gives the standard deviation of the averaged measurements.

B1: library; a variant is named by its letters at N, in order (parent)
chain: GCUGUCACCGGUGUAUUACCCUAGUGGUCGACCGGUCUGAUGAGUCUNNNNNNAGACGAAACAGC

How the values were obtained:
hypoxanthine [1] = variants of: B1; experiment: FACS-Seq fitted mean relative fluorescence mCherry/BFP without ligand (log10 relative fluorescence); ligand: hypoxanthine (xanthine aptamer); higher = higher reporter protein expression; conditions: HEK293T, ligand present: no
Experimental: (§1)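 Hammerhead (sTRSV) ribozyme switch libraries with a ligand aptamer grafted on stem I and a randomized N4-6 loop II, cloned into the 3' UTR of mCherry and transiently transfected into HEK293T cells; RNA-Seq 72 h post transfection with ligand added 1 h before transfection; RNA read count / plasmid DNA read count normalized to the non-cleaving sTRSVctl (x100), log10; sequences with >100 DNA reads. FACS-Seq: lentiviral library sorted into 6 bins after 48 h ligand, log-normal fit mean of mCherry/BFP scaled to controls. Printed sequences are partial switch sequences.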

hypoxanthine [2] = variants of: B1; experiment: normalized RNA/DNA level with ligand (relative to sTRSVctl = 100) (log10 (% of sTRSVctl)); ligand: hypoxanthine (xanthine aptamer); higher = less ribozyme self-cleavage, higher mRNA level; conditions: ligand concentration (+) RNA-Seq: 5 mM, HEK293T, reporter: mCherry (pCS4076), ligand present: yes
Experimental: as §1

hypoxanthine [3] = variants of: B1; experiment: normalized RNA/DNA level without ligand (relative to sTRSVctl = 100) (log10 (% of sTRSVctl)); ligand: hypoxanthine (xanthine aptamer); higher = less ribozyme self-cleavage, higher mRNA level; conditions: HEK293T, reporter: mCherry (pCS4076), ligand present: no
Experimental: as §1

hypoxanthine [4] = variants of: B1; experiment: FACS-Seq fitted mean relative fluorescence mCherry/BFP with ligand (log10 relative fluorescence); ligand: hypoxanthine (xanthine aptamer); ligand concentration (+) FACS-Seq: 5 mM; higher = higher reporter protein expression; conditions: HEK293T, ligand present: yes
Outline: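 Fluorescence values are fitted normal means of bin counts along the mCherry/BFP axis. HEK293T libraries lentivirally carrying the ribozyme switch in an mCherry reporter, with an EF1α-BFP marker, were enriched, exposed to ligand or not for 48 h, and sorted into 6 bins. Genomic DNA per bin was PCR-amplified, barcoded and run on MiSeq. Means of log10(mCherry/BFP) were scaled to five spiked-in control ribozymes.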

Variant	FACS-Seq fitted mean (log10) (hypoxanthine [1])	normalized RNA/DNA level with ligand (log10) (hypoxanthine [2])	normalized RNA/DNA level without ligand (log10) (hypoxanthine [3])	FACS-Seq fitted mean (log10) (hypoxanthine [4])
GCUGUCACCGGUGUAUUACCCUAGUGGUCGACCGGUCUGAUGAGUCUAAAGUUAGACGAAACAGC [AAAGUU]	0.306 ± 0.0051	1.91 ± 0.026	1.823 ± 0.0039	0.548 ± 0.017
GCUGUCACCGGUGUAUUACCCUAGUGGUCGACCGGUCUGAUGAGUCUAAAGUGAGACGAAACAGC [AAAGUG]	0.148 ± 0.035	1.81 ± 0.034	1.31 ± 0.043	0.47 ± 0.012
GCUGUCACCGGUGUAUUACCCUAGUGGUCGACCGGUCUGAUGAGUCUUAAGUGAGACGAAACAGC [UAAGUG]	-0.334 ± 0.04	1.891 ± 0.0081	1.653 ± 0.015	0.146 ± 0.027
GCUGUCACCGGUGUAUUACCCUAGUGGUCGACCGGUCUGAUGAGUCUUAAUAGAGACGAAACAGC [UAAUAG]	0.548 ± 0.036	1.874 ± 0.0076	1.631 ± 0.014	0.666 ± 0.019
GCUGUCACCGGUGUAUUACCCUAGUGGUCGACCGGUCUGAUGAGUCUUAAUAAAGACGAAACAGC [UAAUAA]	0.267 ± 0.015	1.902 ± 0.012	1.78 ± 0.023	0.321 ± 0.019
GCUGUCACCGGUGUAUUACCCUAGUGGUCGACCGGUCUGAUGAGUCUUAAUAUAGACGAAACAGC [UAAUAU]	0.353 ± 0.012	1.91 ± 0.061	1.796 ± 0.005	0.558 ± 0.096
GCUGUCACCGGUGUAUUACCCUAGUGGUCGACCGGUCUGAUGAGUCUCAAUCCAGACGAAACAGC [CAAUCC]	0.406 ± 0.038	1.97 ± 0.086	1.82 ± 0.026	0.468 ± 0.05
GCUGUCACCGGUGUAUUACCCUAGUGGUCGACCGGUCUGAUGAGUCUGAAGUGAGACGAAACAGC [GAAGUG]	-0.0452 ± 0.0093	1.8 ± 0.024	1.276 ± 0.012	0.468 ± 0.037
GCUGUCACCGGUGUAUUACCCUAGUGGUCGACCGGUCUGAUGAGUCUGAAGUUAGACGAAACAGC [GAAGUU]	-0.155 ± 0.12	1.966 ± 0.0047	1.831 ± 0.008	-0.587 ± 0.17
GCUGUCACCGGUGUAUUACCCUAGUGGUCGACCGGUCUGAUGAGUCUGAAUACAGACGAAACAGC [GAAUAC]	0.23 ± 0.012	1.89 ± 0.044	1.713 ± 0.0067	0.499 ± 0.062
GCUGUCACCGGUGUAUUACCCUAGUGGUCGACCGGUCUGAUGAGUCUGAAUAGAGACGAAACAGC [GAAUAG]	0.0583 ± 0.0095	1.786 ± 0.011	1.35 ± 0.026	0.459 ± 0.05
GCUGUCACCGGUGUAUUACCCUAGUGGUCGACCGGUCUGAUGAGUCUGAAUAAAGACGAAACAGC [GAAUAA]	0.317 ± 0.056	1.91 ± 0.04	1.78 ± 0.0034	0.497 ± 0.03
GCUGUCACCGGUGUAUUACCCUAGUGGUCGACCGGUCUGAUGAGUCUCAAGUCAGACGAAACAGC [CAAGUC]	0.736 ± 0.067	1.95 ± 0.069	1.921 ± 0.018	0.635 ± 0.04
GCUGUCACCGGUGUAUUACCCUAGUGGUCGACCGGUCUGAUGAGUCUAAAUAGAGACGAAACAGC [AAAUAG]	0.258 ± 0.041	1.842 ± 0.0027	1.44 ± 0.018	0.487 ± 0.016
GCUGUCACCGGUGUAUUACCCUAGUGGUCGACCGGUCUGAUGAGUCUAAAUAUAGACGAAACAGC [AAAUAU]	-0.168 ± 0.02	1.924 ± 0.012	1.763 ± 0.0044	-0.451 ± 0.1
GCUGUCACCGGUGUAUUACCCUAGUGGUCGACCGGUCUGAUGAGUCUAAAUAAAGACGAAACAGC [AAAUAA]	0.684 ± 0.016	1.89 ± 0.024	1.74 ± 0.025	0.775 ± 0.11
GCUGUCACCGGUGUAUUACCCUAGUGGUCGACCGGUCUGAUGAGUCUGAAUCAAGACGAAACAGC [GAAUCA]	0.438 ± 0.055	1.94 ± 0.065	1.809 ± 0.013	0.46 ± 0.066
GCUGUCACCGGUGUAUUACCCUAGUGGUCGACCGGUCUGAUGAGUCUGAAUCGAGACGAAACAGC [GAAUCG]	0.14 ± 0.0063	1.84 ± 0.02	1.4 ± 0.053	0.439 ± 0.05
GCUGUCACCGGUGUAUUACCCUAGUGGUCGACCGGUCUGAUGAGUCUCAAUAAAGACGAAACAGC [CAAUAA]	0.566 ± 0.035	1.89 ± 0.04	1.654 ± 0.0078	0.578 ± 0.07
GCUGUCACCGGUGUAUUACCCUAGUGGUCGACCGGUCUGAUGAGUCUCAAUACAGACGAAACAGC [CAAUAC]	0.32 ± 0.022	1.93 ± 0.069	1.767 ± 0.01	0.507 ± 0.0056
GCUGUCACCGGUGUAUUACCCUAGUGGUCGACCGGUCUGAUGAGUCUAAAUCAAGACGAAACAGC [AAAUCA]	0.598 ± 0.077	1.927 ± 0.0036	1.8121 ± 0.0018	0.629 ± 0.082
